Blank lines part the entries; values can stand above or below the binder they belong to.
What was measured:
Conditions in all cases: both partners purified
[1] = target: T1, hRpn10^305–377 (RAZUL, Rpn10 AZUL-binding domain) (human, UniProt P55036 305-377); assay: ITC; 25 °C, MicroCal iTC200; E6AP AZUL injected into hRpn10 305-377 (0.0405 mM) or hRpn10 322-366 peptides (0.01 mM) in the cell; 10 mM MOPS pH 6.5, 50 mM NaCl, 5 mM DTT, 10 μM zinc sulfate; one-site fit
T1 construct: Isotope-labelled (15N, 13C, 2H) in some NMR samples; also called hRpn10 RAZUL; source: E. coli Rosetta 2 (DE3), purified (glutathione sepharose, PreScission cleavage, SEC); not shown: GST, N-terminal, cleaved
T1 sequence (looked up): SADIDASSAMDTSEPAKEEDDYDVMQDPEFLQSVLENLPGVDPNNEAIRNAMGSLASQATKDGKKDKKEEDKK

GST-hRpn10^305–377 = target: T2, GST-hRpn10^305–377 (human, UniProt P55036 305-377); assay: SPR; Biacore T200; GST-hRpn10 305-377 captured (800 RU) by anti-GST antibody on a CM5 chip, GST on the reference cell; E6AP AZUL 5-250 nM in HBS-P+ with 10 μM zinc sulfate, single cycle kinetics, triplicate
T2 construct: pGEX-6P-3; a PreScission site lies between GST and hRpn10; source: E. coli Rosetta 2 (DE3), purified (glutathione sepharose, glutathione elution, SEC); not shown: GST, N-terminal, kept
T2 sequence (looked up): T1 sequence (looked up)

ubiquitin = ubiquitin (UniProt P0CG48 1-76); assay: NMR titration; 2D NMR on 15N-hRpn10 196-377, ubiquitin added; 25 °C, 10 mM MOPS pH 6.5, 50 mM NaCl, 5 mM DTT, 10 μM zinc sulfate
[2] = target: T3, full-length E6AP (Isoform II) (human, UniProt Q05086 1-875); assay: pull-down; 2 nmol His-tagged hRpn10 construct on Ni-NTA agarose, 200 pmol E6AP for 1 h; 10 mM MOPS pH 6.5, 50 mM NaCl, 5 mM 2-mercaptoethanol, 10 μM zinc sulfate; Coomassie staining
T3 construct: E6AP/UBE3A, isoform II, full length; catalytic cysteine C843 in isoform II; also called UBE3A; source: bought: UBPBio K1411
T3 sequence (Q05086 whole entry, canonical isoform): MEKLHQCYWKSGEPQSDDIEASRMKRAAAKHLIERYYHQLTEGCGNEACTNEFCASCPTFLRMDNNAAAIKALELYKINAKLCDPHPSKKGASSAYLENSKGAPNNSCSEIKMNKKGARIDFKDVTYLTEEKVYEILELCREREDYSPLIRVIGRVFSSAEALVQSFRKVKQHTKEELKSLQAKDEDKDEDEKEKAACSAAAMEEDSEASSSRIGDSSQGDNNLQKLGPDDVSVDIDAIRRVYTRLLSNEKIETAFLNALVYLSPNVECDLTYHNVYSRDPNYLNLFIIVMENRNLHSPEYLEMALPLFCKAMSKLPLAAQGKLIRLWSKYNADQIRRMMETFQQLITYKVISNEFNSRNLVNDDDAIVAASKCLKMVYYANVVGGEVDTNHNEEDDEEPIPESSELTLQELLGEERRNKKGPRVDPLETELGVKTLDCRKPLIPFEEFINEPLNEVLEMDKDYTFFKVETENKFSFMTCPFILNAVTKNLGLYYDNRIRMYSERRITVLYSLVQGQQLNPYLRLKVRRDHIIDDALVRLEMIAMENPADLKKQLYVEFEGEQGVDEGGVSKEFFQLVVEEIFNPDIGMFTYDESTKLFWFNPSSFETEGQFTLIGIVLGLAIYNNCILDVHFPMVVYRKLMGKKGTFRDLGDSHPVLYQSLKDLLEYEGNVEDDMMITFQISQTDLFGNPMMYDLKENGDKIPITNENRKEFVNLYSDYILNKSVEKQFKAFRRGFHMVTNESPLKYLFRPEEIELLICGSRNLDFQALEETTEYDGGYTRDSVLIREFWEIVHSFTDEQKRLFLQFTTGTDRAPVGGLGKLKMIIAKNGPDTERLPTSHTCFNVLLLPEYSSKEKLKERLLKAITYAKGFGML

Kd [1]: 11.6 nM
Kd (GST-hRpn10^305–377): 8.1 nM
B1: E6AP AZUL (amino-terminal zinc-binding domain of ubiquitin E3a ligase), amino acids 24 to 87 (domain or fragment, human, UniProt Q05086 24-87, looked up)
chain: MKRAAAKHLIERYYHQLTEGCGNEACTNEFCASCPTFLRMDNNAAAIKALELYKINAKLCDPHP
notes: E6AP/UBE3A AZUL domain, human, amino acids 24 to 87, subcloned from HA-E6AP isoform II; zinc sulfate in the buffers; Isotope-labelled (15N, 13C) in some NMR samples; also called AZUL domain; source: E. coli BL21 (DE3), purified (Ni-NTA, thrombin cleavage, SEC); not shown: polyhistidine tag, N-terminal, cleaved

binding result (ubiquitin): binds
binding result [2]: binds
B2: His-hRpn10^196–377 (domain or fragment, human, UniProt P55036 196-377, looked up)
chain: MLGLGASDFEFGVDPSADPELALALRVSMEEQRQRQEEEARRAAAASAAEAGIATTGTEDSDDALLKMTISQQEFGRTGLPDLSSMTEEEQIAYAMQMSLQGAEFGQAESADIDASSAMDTSEPAKEEDDYDVMQDPEFLQSVLENLPGVDPNNEAIRNAMGSLASQATKDGKKDKKEEDKK
notes: pET14b with a thrombin site; the methods say that it was eluted with the His-tag intact; 15N-labelled for the NMR experiment with ubiquitin; source: E. coli BL21 (DE3), purified (Ni-NTA, imidazole elution, SEC); not shown: polyhistidine tag, N-terminal, kept

binding result [2]: binds
B3: His-hRpn10^full-length (natural protein, human, UniProt P55036 1-377, looked up)
chain: MVLESTMVCVDNSEYMRNGDFLPTRLQAQQDAVNIVCHSKTRSNPENNVGLITLANDCEVLTTLTPDTGRILSKLHTVQPKGKITFCTGIRVAHLALKHRQGKNHKMRIIAFVGSPVEDNEKDLVKLAKRLKKEKVNVDIINFGEEEVNTEKLTAFVNTLNGKDGTGSHLVTVPPGPSLADALISSPILAGEGGAMLGLGASDFEFGVDPSADPELALALRVSMEEQRQRQEEEARRAAAASAAEAGIATTGTEDSDDALLKMTISQQEFGRTGLPDLSSMTEEEQIAYAMQMSLQGAEFGQAESADIDASSAMDTSEPAKEEDDYDVMQDPEFLQSVLENLPGVDPNNEAIRNAMGSLASQATKDGKKDKKEEDKK
notes: human Rpn10 (hRpn10/PSMD4/S5a), full length; pET11d plasmid, a gift from Dr Fumio Hanaoka; also called His6-hRpn10^full-length; source: E. coli BL21 (DE3), purified (Ni-NTA, imidazole elution, SEC); not shown: His6, N-terminal, kept
